The record followed here is the supplement of paper PMC10724198.

± gives the standard deviation of the averaged measurements.
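Further: PSI is a weighted mean of sequencing reads over stability bins, variants kept only with over 10 reads, mCherry proximal and sfGFP distal, peptide attached via GGGS linker.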

This data set has as its system Saccharomyces cerevisiae. As to the kind of experiment: protein stability index of tFT-peptide fusion (C-terminal peptide) (PSI (0-1 scale)); higher = more stable (slower turnover). The note with it: genetic background: wild type; temperature: 30 C.
For QKKNQNKQEQKL, the protein stability index is 0.683 ± 0.021.

QKKNSKKIKPKR had a protein stability index of 0.694 ± 0.026. To QKKRKKTNQKNL belongs 0.621 ± 0.041; to QKNKNTEKINTK, 0.663 ± 0.018. The sequence QKRKQKKIIQRM showed a protein stability index of 0.652 ± 0.013. In the case of QKTLKPEQVAEH it was 0.68 ± 0.027; in that of QKTVRDIRIAAL, 0.591 ± 0.086; in that of QLETFGRDLTIP, 0.716 ± 0.11. In the case of QLGGLHIPHPLR it was 0.899 ± 0.028.

As to QNKKNKNKKKKE, the protein stability index stood at 0.706 ± 0.027. In the case of QNKTQKSKKKKS it was 0.734 ± 0.038; in that of QPPLSDYHQARR, 0.683 ± 0.023.

QPPPPPPRPPPP registered a protein stability index of 0.504 ± 0.016. QPPPPSPPPPLP: the protein stability index was 0.653 ± 0.047. In the case of QPTCSLRAGPRD it was 0.713 ± 0.036.

Consider QPVGAAQWGSQS, for which the protein stability index is 0.715 ± 0.028. To QQRKGTKDNGRE belongs 0.707 ± 0.095. QREKGEKERTET displayed a protein stability index of 0.6783 ± 0.004. For the sequence QRGGEGWILGGV, the protein stability index came out at 0.687 ± 0.026. With QRPSRAQGKSYE, the protein stability index is 0.766 ± 0.014.

With QRRRYKHEIKRM, the protein stability index came out at 0.648 ± 0.0085. For QRSEHGAHPTEP, the protein stability index came to 0.701 ± 0.035. To QRSFSLRLSAPV belongs 0.681 ± 0.029; to QRTAACGSQRNR, 0.682 ± 0.025; to QSILVCELGMEG, 0.67 ± 0.051.

The sequence QSKIKNKNIKIK showed a protein stability index of 0.671 ± 0.017. To QSLRRLSSSSCI belongs 0.707 ± 0.058; to QSRAMFELMGIS, 0.652 ± 0.004; to QSRHCHPTPKRL, 0.65 ± 0.031. In the case of QSRYASDLRNGL it was 0.699 ± 0.065. In the case of QSSWVGRWVRGG it was 0.659 ± 0.02; in that of QSVSSTGQARLS, 0.682 ± 0.033. Turning to QSWVNIGCRGAW, the protein stability index came to 0.72 ± 0.012. In the case of QTATIKGTLIAM it was 0.585 ± 0.0076; in that of QTDRPPPVSPPR, 0.671 ± 0.047. To QTKSPAKREKTC belongs 0.665 ± 0.058; to QTVFRQRLKEPF, 0.644 ± 0.038. In the case of QVFTLFPASYPL it was 0.688 ± 0.057; in that of QVKESDGEATKS, 0.592 ± 0.024. The sequence QVPDPSVNQPPS yielded a protein stability index of 0.699 ± 0.028. In the case of QWAAVCAVVGGG it was 0.684 ± 0.055.

The sequence QWAGGQERTAGK had a protein stability index of 0.583 ± 0.024. The sequence QWIINVSRSIRK displayed a protein stability index of 0.654 ± 0.031. For the sequence RAARQRSVYQHG, the protein stability index came out at 0.6481 ± 0.0037. To RACSLWVSVVQP belongs 0.67873 ± 2.3e-05; to RADGHGARFRVR, 0.799 ± 0.009. In the case of RAFDGYNSVDML it was 0.663 ± 0.023; in that of RAKLKKNKRRCK, 0.719 ± 0.0067; in that of RALGKRFIQARD, 0.727 ± 0.022. To RALPPPLCPPPH belongs 0.606 ± 0.056.

Consider RAPMQPTATQAP, for which the protein stability index was found to be 0.654 ± 0.035. In the case of RAPPKTTPHPAE it was 0.693 ± 0.052; in that of RARELGVPPPPP, 0.579 ± 0.066; in that of RARGGGAEPGRN, 0.685 ± 0.027. As to RARGQPTKDIAS, the protein stability index was 0.643 ± 0.018. In the case of RARNRPKTEYHI it was 0.6826 ± 0.0025. RASFLLPPPAPP displayed a protein stability index of 0.6311 ± 0.0049.

Sequence RAVFFLQAHCSL gave a protein stability index of 0.674 ± 0.0072. In turn, RAWPLLPTCPPP returned a protein stability index of 0.7 ± 0.019. RCFGPPSRLAYF came in with a protein stability index of 0.683 ± 0.017. In the case of RCGDGLSRLTPL it was 0.71 ± 0.032; in that of RCGGGGSVSFWW, 0.693 ± 0.049; in that of RCGLSGGRPPVL, 0.6475 ± 0.0016. In the case of RCGRVEKRIGRV it was 0.756 ± 0.086.
